Reference: patent US20120275997A1 (published 2012)
Where a chain is given by its changes, count along the chain named.

Experiments:
[1] = biological target: human CD151 protein (human) (UniProt P48509); experiment: flow cytometry on A549 cells, antibody at 10 ug/ml
[2] = biological target: human CD151 protein (human) (UniProt P48509); experiment: flow cytometry on BxPC3 cells, antibody at 10 ug/ml
[3] = biological target: human CD151 protein (human) (UniProt P48509); experiment: flow cytometry on DU145 cells, antibody at 10 ug/ml
[4] = biological target: human CD151 protein (human) (UniProt P48509); experiment: flow cytometry on NIH3T3-CD151 cells, antibody at 10 ug/ml
[5] = biological target: human CD151 protein (human) (UniProt P48509); experiment: flow cytometry on PC3 cells, undiluted hybridoma supernatant
[6] = biological target: human CD151 protein (human) (UniProt P48509); experiment: flow cytometry on PC3 cells
[7] = biological target: T1, recombinant large extracellular loop EC2 of human CD151 (human, UniProt P48509 113-221, limits assumed); experiment: competition ELISA on recombinant EC2; competitor murine 214B2 at 80 ng/ml, detected with anti-mouse IgG
T1 construct: also called recombinant EC2 loop; extracellular loop 2
T1 sequence (looked up): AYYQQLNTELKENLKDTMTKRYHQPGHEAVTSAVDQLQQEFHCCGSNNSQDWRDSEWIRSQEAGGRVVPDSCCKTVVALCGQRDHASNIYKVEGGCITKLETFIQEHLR
Protocol: (§1) Cross-competition experiments were further performed by ELISA to evaluate the ability of the chimeric antibodies c214B2[IgG1] and c203B6[IgG1] to inhibit the binding of their corresponding murine forms to the recombinant EC2 loop. Briefly, 96-well ELISA plates were coated with recombinant EC2 at 5 μg/ml in PBS overnight at 4° C. Murine Mabs 203B6 and 214B2 at 80 ng/ml were further incubated in the absence or in the presence of increasing concentrations of their corresponding chimeric antibody forms, ranging from 0.01 to 20 μg/ml, for 1 h at 37° C. For control experiments, no murine antibody was added. Horseradish peroxidase-conjugated polyclonal goat anti-mouse IgG was added at a 1/5000 dilution in PBS and incubated for 1 h at 37° C. After incubation with the peroxidase substrate TMB for 10 min at room temperature, the reaction was stopped with 1 M sulfuric acid and the optical density at 450 nm was measured. […] IC₅₀ values, calculated by using the GraphPad Prism software, were 0.69 μg/ml and 0.71 μg/ml for c214B2[IgG1] and c203B6[IgG1], respectively.

[8] = biological target: T1, recombinant large extracellular loop …; experiment: competition ELISA on recombinant EC2; competitor murine 203B6 at 80 ng/ml, detected with anti-mouse IgG
Protocol: as §1

[9] = biological target: T1, recombinant large extracellular loop …; experiment: cross-blocking ELISA on recombinant EC2; competitor murine 214B2
Protocol: FIG. 18 illustrates the Cross blocking of the murine antibody […] by the chimeric […] and different variants of the humanized 214B2. The activity of the humanized variants of 214B2 (hz214B2) to cross block the parental antibody m214B2 was evaluated by ELISA using the recombinant extracellular loop 2 (EC2) of human antigen CD151. The activity of the humanized variants was compared to the chimeric 214B2.
The affinity of the humanized variants to the epitope of the parental antibody was evaluated by cross blocking the parental antibody with the humanized antibody. The parental antibody concentration was kept constant and the humanized antibody serial diluted. The chimeric antibody served as a positive control and as a reference in these experiments. The humanized antibodies were evaluated by there affinity in ELISA and flow cytometry assays. In the ELISA based assay the second extracellular domain (EC2) of the human CD151 was expressed recombinantly and purified by the six histidine tag. Purified EC2 protein was used to coated ELISA plates and binding of humanized anti-CD151 antibodies was measured indirectly by detecting the murine parental antibody with HRP conjugated anti-mouse IgG antibodies. Binding to CD151 of humanized anti-CD151 antibodies was evaluated by flow cytometry using the human prostate cancer cell line PC3. The affinity was determined by cross blocking the biotinylated parental murine anti-CD151 antibody. The biotinylated antibody was detected using fluorescein conjugated streptavidin. Affinity constant (Kd) was measured by BIACore analysis.

Sequence of human CD151 protein (human) (P48509 whole entry): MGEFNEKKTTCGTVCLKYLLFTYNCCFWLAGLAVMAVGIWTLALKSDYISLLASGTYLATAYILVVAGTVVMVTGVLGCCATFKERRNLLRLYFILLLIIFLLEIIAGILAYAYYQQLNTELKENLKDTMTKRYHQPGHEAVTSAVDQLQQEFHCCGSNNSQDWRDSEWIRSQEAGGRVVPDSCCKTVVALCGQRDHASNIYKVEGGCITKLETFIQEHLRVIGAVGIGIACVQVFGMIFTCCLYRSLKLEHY

B1: murine antibody 214B2 (antibody, mouse IgG1, V domains shown)
VH: QVQLQQPGSVLVRPGASVKLSCKASGYTFTSSSMHWAKQRPGQGLEWIGEIHPNSGNTNNNEKFKGKATLTVDTSSSTAYVDLSSLSSEDSAVYYCARARSFYYAMDCWGQGTSVTVSS
VL: NIVMTQSPKSMSMSVGERVTLSCKASENVGTYVSWYQQKPEQSPKLLIYGASNRYTGVPDRFTGSGSATDFTLTISSVQAEDLADYHCGQTYSFPYTFGGGTKLEIK
Q: With B1 as the binder, how does the MFI [1] read?
A: The MFI was 820.

Q: What about the MFI [2] of the same binder?
A: Its MFI is 849.

Q: What about the MFI [3] of the same binder?
A: The MFI was 1330.

Q: And the MFI [4]?
A: The MFI was 748.

Q: What about the MFI [5] of the same binder?
A: The MFI was 1000.

B2: murine antibody 203B6 (antibody, mouse IgG1, V domains shown)
VH: EVKLVESGGGLVQPGGSLKLSCAASGFTFSTYTMSWVRQTPEKRLEWVAYISSGGGTTYYPDTVKGRFTISRDNARNTLYLQMNSLKSEDTAMYYCATPRIGTGFAYWGQGTLVTVSA
VL: DIVLSQSPASLALSLGQRATISCRASASVEYYGTSLMHWYQQKPGQPPKLLIYEASNVESGVPARFSGSGSGTDFSLNIHPVEEDDLAIYFCQQSRKAPYTFGGGTKLEIK
Q: Which results are given for B2?
A: MFI [1]: 675; MFI [2]: 768; MFI [3]: 860; MFI [4]: 540; MFI [5]: 975

B3: chimeric antibody c214B2[IgG1] (antibody, V domains shown)
VH: B1 VH
VL: NIVMTQSPKSMSMSVGERVTLSCKASENVGTYVSWYQQKPEQSPKLLIYGASNRYTGVPDRFTGSGSATDFTLTISSVQAEDLADYHCGQTYSFPYTFGGGTKLEIKR
notes: Mouse variable domains fused to human IgG1 / Ckappa constant domains; also called chimeric 214B2; chimeric 241B2
Q: Which results are given for B3?
A: antibody concentration at which the binding plateau was reached [6]: 2.5 µg/mL; IC50 [7]: 0.69 µg/mL

B4: chimeric antibody c203B6[IgG1] (antibody, V domains shown)
VH: B2 VH
VL: DIVLSQSPASLALSLGQRATISCRASASVEYYGTSLMHWYQQKPGQPPKLLIYEASNVESGVPARFSGSGSGTDFSLNIHPVEEDDLAIYFCQQSRKAPYTFGGGTKLEIKR
notes: Mouse variable domains fused to human IgG1 / Ckappa constant domains
Q: With B4 as the binder, how does the antibody concentration at which the binding plateau was reached [6] read?
A: Its antibody concentration at which the binding plateau was reached is 5 µg/mL.

Q: And the IC50 [8]?
A: The IC50 was 0.71 µg/mL.

B5: humanized antibody Hz214B2VLVar2VHVar3 (G1) (antibody, human IgG1, kappa, V domains shown)
VH: QVQLVQSGAEVKKPGASVKLSCKASGYTFTSSSMHWVRQAPGQGLEWMGEIHPNSGNTNNAQKFQGRATLTVDTSISTAYVELSRLRSDDTAVYYCARARSFYYAMDCWGQGTSVTVSS
VL: NIQMTQSPSSLSASVGDRVTITCRASENVGTYVNWYQQKPGKAPKLLIYGASNLQSGVPSRFSGSGSATDFTLTISSLQPEDFATYYCGQTYSFPYTFGQGTKLEIKR
notes: also called VH Var3 with VL Var2
Q: Does B5 bind [9]?
A: Result: binds

B6: humanized 214B2, VL Var1 with VH Var2 (IgG1) (antibody, V domains shown)
VH: B5 VH with L20V, A68V, V81M
VL: B5 VL with N1D, V33L, N53S, A68G
notes: also called Hz214B2VLVar1 with Hz214B2VHVar2 (G1)
Q: Does B6 bind [9]?
A: Result: binds

B7: humanized 214B2, VL Var1 with VH Var3 (IgG1) (antibody, V domains shown)
VH: B5 VH
VL: B5 VL with N1D, V33L, N53S, A68G
notes: also called Hz214B2VLVar1 with Hz214B2VHVar3 (G1)
Q: Does B7 bind [9]?
A: Result: binds

B8: humanized antibody Hz214B2VLVar2VHVar2 (G1) (antibody, human IgG1, kappa, V domains shown)
VH: B5 VH with L20V, A68V, V81M
VL: B5 VL
notes: also called VH Var2 with VL Var2
Q: Does B8 bind [9]?
A: Result: binds

B9: humanized antibody Hz214B2VLVar3VHVar2 (G1) (antibody, human IgG1, kappa, V domains shown)
VH: B5 VH with L20V, A68V, V81M
VL: B5 VL with Q3V, R24K, N34S, Q55Y, Y87H
notes: also called VH Var2 with VL Var3
Q: Does B9 bind [9]?
A: Result: binds

B10: humanized antibody Hz214B2VLVar3VHVar3 (G1) (antibody, human IgG1, kappa, V domains shown)
VH: B5 VH
VL: B5 VL with Q3V, R24K, N34S, Q55Y, Y87H
notes: also called Hz214B2VHVar3VLVar3; Hz214B2VHVar3VLVar3 (G1)
Q: Does B10 bind [9]?
A: Result: binds

B11: humanized antibody Hz214B2VLVar4VHVar4 (G1) (antibody, human IgG1, kappa, V domains shown)
VH: B5 VH with A61N, Q62E, Q65K
VL: B5 VL with Q3V, R24K, N34S, L54R, Q55Y, S56T, Y87H
notes: also called Hz214B2VHVar4VLVar4; Hz214B2VHVar4VLVar4 (G1)
Q: Does B11 bind [9]?
A: Result: binds
